± gives the standard deviation of the averaged measurements.
System: ATP
Test: switch fluorescence ratio, 500 uM ATP over buffer (Cy3 cluster intensity, sum of 5 cycles each) (fold (ratio)); higher = stronger signal-on switching upon ATP binding; sequences stand for … in TCGTCGGCAGCGTCAGATGTGTATAAGAGACAGTTTTTTTTTTTTTTTTTTTTTTTTT…TC
Conditions: aptamer strand: ATP DNA aptamer (quencher-CACCTGGGGGAGTATTGCGGAGGAAGG + anchor), 100 nM annealed; ATP concentration: 500 uM
How it was run: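 Imaging in selection buffer was followed by imaging after 15 min with 500 uM ATP at 22 °C, for Cy3-labelled switching-strand clusters annealed to 100 nM quencher-labelled ATP aptamer on a modified Illumina MiSeq flow-cell. Five of these buffer/ATP cycles ran, separated by NaOH stripping and re-annealing. The fluorescence ratio per cluster is summed target-cycle over summed buffer-cycle Cy3 intensity, averaged per switch-domain sequence; clusters outside 100-1000 RFU were removed.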
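Note: ATP exposure 15 min at 22 °C before imaging.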

**Q.** For TTTCGCGGTT, which switch fluorescence ratio is on record?
**A.** 1.02 ± 0.043

**Q.** With GGACTTGCGA as the sequence, how does the switch fluorescence ratio read?
**A.** 1.043 ± 0.0042

**Q.** For TGTTGGGGTG, which switch fluorescence ratio is on record?
**A.** 0.997 ± 0.045

**Q.** Which switch fluorescence ratio does the source give for TTGCGTGGTG here?
**A.** 0.959 ± 0.077

**Q.** With TGCTGCTTTT as the sequence, how does the switch fluorescence ratio read?
**A.** 0.943 ± 0.036

**Q.** GCTCATTTCG was tested. Which switch fluorescence ratio did it give?
**A.** 1.02 ± 0.042

**Q.** Which switch fluorescence ratio does the source give for CGGGTATTGG here?
**A.** 0.97968 ± 0.00074

**Q.** With GGTGCCTGGG as the sequence, how does the switch fluorescence ratio read?
**A.** 1 ± 0.0011

**Q.** With GTCGGCAGGG as the sequence, how does the switch fluorescence ratio read?
**A.** 1.06 ± 0.014

**Q.** Which switch fluorescence ratio does the source give for TAGAATTAGG here?
**A.** 0.987 ± 0.037

**Q.** TTTTGTCGGT was tested. Which switch fluorescence ratio did it give?
**A.** 0.9667 ± 0.0042

**Q.** Which switch fluorescence ratio does the source give for CAGGGAATGT here?
**A.** 0.9984 ± 0.0077

**Q.** How did the switch fluorescence ratio turn out when TGAAATGGCT was run?
**A.** 0.997 ± 0.034

**Q.** For GGGGGAAGTG, which switch fluorescence ratio is on record?
**A.** 0.976 ± 0.026

**Q.** For ATTGTATCAG, which switch fluorescence ratio is on record?
**A.** 0.983 ± 0.027

**Q.** GGCAGCTGGT was tested. Which switch fluorescence ratio did it give?
**A.** 1.01 ± 0.03

**Q.** For AAATATATTC, which switch fluorescence ratio is on record?
**A.** 1.02 ± 0.012

**Q.** For ATTTGCCCAT, which switch fluorescence ratio is on record?
**A.** 0.986 ± 0.019

**Q.** How did the switch fluorescence ratio turn out when GTGAAAACGT was run?
**A.** 1.04 ± 0.035

**Q.** For TTGAGTGTGT, which switch fluorescence ratio is on record?
**A.** 0.9604 ± 0.0023

**Q.** Which switch fluorescence ratio does the source give for GAATCTAGTG here?
**A.** 1.019 ± 0.0039

**Q.** For AGATCTGGGG, which switch fluorescence ratio is on record?
**A.** 1.04 ± 0.036

**Q.** With TGTATATAGC as the sequence, how does the switch fluorescence ratio read?
**A.** 1 ± 0.021

**Q.** How did the switch fluorescence ratio turn out when GTAAGTTCTG was run?
**A.** 1 ± 0.011

**Q.** Which switch fluorescence ratio does the source give for GCTTGTAGGG here?
**A.** 0.969 ± 0.011

**Q.** With TTAAGCTGTT as the sequence, how does the switch fluorescence ratio read?
**A.** 1.01 ± 0.023

**Q.** With TATTAAGTGG as the sequence, how does the switch fluorescence ratio read?
**A.** 1.05 ± 0.071

**Q.** Which switch fluorescence ratio does the source give for TTGGGGAAG here?
**A.** 0.9853 ± 0.0061

**Q.** How did the switch fluorescence ratio turn out when TTTTGGGGAG was run?
**A.** 1.02 ± 0.029

**Q.** How did the switch fluorescence ratio turn out when ATCGACATAG was run?
**A.** 0.9985 ± 0.006

**Q.** Which switch fluorescence ratio does the source give for TCTGTAAGGG here?
**A.** 0.9783 ± 0.0076

**Q.** How did the switch fluorescence ratio turn out when GCTAGGCCTC was run?
**A.** 1.01 ± 0.038

**Q.** With GCTTGTACGT as the sequence, how does the switch fluorescence ratio read?
**A.** 1.021 ± 0.0096

**Q.** Which switch fluorescence ratio does the source give for TTGGGAATCC here?
**A.** 1.03 ± 0.12

**Q.** How did the switch fluorescence ratio turn out when GTGTTATTAG was run?
**A.** 1.005 ± 0.007

**Q.** CAAACGCCCG was tested. Which switch fluorescence ratio did it give?
**A.** 0.9968 ± 0.0073

**Q.** Which switch fluorescence ratio does the source give for GAGAAAGGTG here?
**A.** 1.09 ± 0.022

**Q.** How did the switch fluorescence ratio turn out when CCAAGTAGGC was run?
**A.** 1.13 ± 0.022

**Q.** How did the switch fluorescence ratio turn out when TTAGTACTGC was run?
**A.** 1.03 ± 0.02

**Q.** Which switch fluorescence ratio does the source give for AGGAAGGGGA here?
**A.** 0.9683 ± 0.0089

**Q.** How did the switch fluorescence ratio turn out when TGGATGGAAT was run?
**A.** 0.961 ± 0.035

**Q.** AGGTAGTCTG was tested. Which switch fluorescence ratio did it give?
**A.** 0.9756 ± 0.003

**Q.** For GGCACGGGGC, which switch fluorescence ratio is on record?
**A.** 1.02 ± 0.024

**Q.** How did the switch fluorescence ratio turn out when TCAGTAGGCT was run?
**A.** 1.043 ± 0.0032

**Q.** For CACGGGGGCG, which switch fluorescence ratio is on record?
**A.** 1 ± 0.049

**Q.** GGGTATAGGT was tested. Which switch fluorescence ratio did it give?
**A.** 0.999 ± 0.016

**Q.** How did the switch fluorescence ratio turn out when TCGTATTTGG was run?
**A.** 0.993 ± 0.032

**Q.** How did the switch fluorescence ratio turn out when TTGAATTTGG was run?
**A.** 0.9794 ± 0.0085

**Q.** TCCGTGCGGT was tested. Which switch fluorescence ratio did it give?
**A.** 1.04 ± 0.066

**Q.** With AAGTTGGTTC as the sequence, how does the switch fluorescence ratio read?
**A.** 0.98 ± 0.052

**Q.** For ACACATTGGA, which switch fluorescence ratio is on record?
**A.** 1.03 ± 0.0023

**Q.** ATTAAACGGG was tested. Which switch fluorescence ratio did it give?
**A.** 0.997 ± 0.012

**Q.** With CAGCTGGATG as the sequence, how does the switch fluorescence ratio read?
**A.** 0.993 ± 0.029

**Q.** For AAAAAAGGTT, which switch fluorescence ratio is on record?
**A.** 1.07 ± 0.14

**Q.** How did the switch fluorescence ratio turn out when ACGTTAAGAT was run?
**A.** 1.29 ± 0.26

**Q.** Which switch fluorescence ratio does the source give for CGTTGAATAT here?
**A.** 1.01 ± 0.016

**Q.** With GCAGCCTGCT as the sequence, how does the switch fluorescence ratio read?
**A.** 0.985 ± 0.032

**Q.** Which switch fluorescence ratio does the source give for TGCCGGTTTT here?
**A.** 1.01 ± 0.036

**Q.** For AACTAACGTG, which switch fluorescence ratio is on record?
**A.** 1.3 ± 0.056

**Q.** ATTGGGAGAT was tested. Which switch fluorescence ratio did it give?
**A.** 1.024 ± 0.0064

**Q.** With GCTTTATTAA as the sequence, how does the switch fluorescence ratio read?
**A.** 1 ± 0.017

**Q.** How did the switch fluorescence ratio turn out when TATAGTGGGA was run?
**A.** 1 ± 0.032

**Q.** Which switch fluorescence ratio does the source give for ATGTGTATTG here?
**A.** 0.985 ± 0.025

**Q.** AGGAGAACGG was tested. Which switch fluorescence ratio did it give?
**A.** 0.938 ± 0.011

**Q.** Which switch fluorescence ratio does the source give for CCGGTAGGGT here?
**A.** 1.36 ± 0.61

**Q.** For TTTTTTATTA, which switch fluorescence ratio is on record?
**A.** 0.986 ± 0.023

**Q.** GGAATAGAGT was tested. Which switch fluorescence ratio did it give?
**A.** 1.02 ± 0.021

**Q.** How did the switch fluorescence ratio turn out when AATAGCATGG was run?
**A.** 1.03 ± 0.024

**Q.** Which switch fluorescence ratio does the source give for ATCAAGTCTG here?
**A.** 0.9898 ± 0.0028

**Q.** For GCTTCTGGCA, which switch fluorescence ratio is on record?
**A.** 0.999 ± 0.023

**Q.** With GAGTAGGCTA as the sequence, how does the switch fluorescence ratio read?
**A.** 0.973 ± 0.035

**Q.** Which switch fluorescence ratio does the source give for AGCAAGAGGC here?
**A.** 1.26 ± 0.34

**Q.** With TTTTTATATG as the sequence, how does the switch fluorescence ratio read?
**A.** 0.999 ± 0.02

**Q.** AAAATTGCGT was tested. Which switch fluorescence ratio did it give?
**A.** 1.16 ± 0.2

**Q.** AGTGTCGCCT was tested. Which switch fluorescence ratio did it give?
**A.** 0.985 ± 0.019

**Q.** Which switch fluorescence ratio does the source give for AGTGTTACTG here?
**A.** 0.975 ± 0.044

**Q.** Which switch fluorescence ratio does the source give for TATTAATGAT here?
**A.** 1.007 ± 0.01

**Q.** How did the switch fluorescence ratio turn out when TAAGAATGTT was run?
**A.** 0.977 ± 0.0098

**Q.** How did the switch fluorescence ratio turn out when AGCTTGGGTC was run?
**A.** 0.994 ± 0.019

**Q.** GGGACATTCA was tested. Which switch fluorescence ratio did it give?
**A.** 1.03 ± 0.023

**Q.** For GGAAGTTAGT, which switch fluorescence ratio is on record?
**A.** 0.98253 ± 0.00016

**Q.** How did the switch fluorescence ratio turn out when GTTTTTGCCA was run?
**A.** 1.01 ± 0.016

**Q.** For TATGGGGGA, which switch fluorescence ratio is on record?
**A.** 1.01 ± 0.069

**Q.** Which switch fluorescence ratio does the source give for CTTATCTGGG here?
**A.** 0.999 ± 0.041

**Q.** Which switch fluorescence ratio does the source give for CGATGTTGGG here?
**A.** 0.99 ± 0.018

From the supplement of paper PMC10126150
